Patent US20220160699, “MODULATORS OF TDP-43” (Alteron Therapeutics, Inc., published 2022)

Biological target: TDP-43 (TARDBP) (UniProt Q13148 Q13148:1-414)
Test: pulldown; streptavidin bead pulldown and anti-TDP-43 Western; 20 mM HEPES pH 7.5, 0.3% CHAPS, 150 mM NaCl, on ice/4 C; binding blocked by 30 uM ALT-59, and complex displaced by ALT-59
Details: tags: N-terminal His-Sumo, expressed in E. coli Rosetta (DE3) from pSumo/TDP43; label: 3' biotin
Experimental: Additional experiments were performed to confirm the direct binding of ALT-59 to TDP-43. One microgram of purified His-Sumo-TDP43 was incubated with 1 μg TG₁₂-biotin ([…]-biotin (SEQ ID NO: 1)) in binding buffer containing 20 mM HEPES, pH 7.5, 0.3% CHAPS, 150 mM NaCl, (Sigma-Aldrich), and protease inhibitor cocktail (Roche) for 4 hours on ice in the presence of carrier (50% Cremophor EL, 50% absolute ethanol) or 30 μM ALT-59 dissolved in carrier. Streptavidin magnetic beads (20 μl settled beads, GE Healthcare Life Sciences) were added to pull down the DNA-protein complex by rotating at 4° C. for 2 hours. After being washed 5 times with binding buffer, samples were boiled in protein sample buffer. In another experiment, DNA-protein complex bound to Streptavidin magnetic beads were washed and split into three parts, two of which were incubated with either carrier or ALT-59 for 4 hours with rotation at 4° C. to elute TDP-43 from TG₁₂-biotin-streptavidin. The third part and elutes were mixed with protein sample buffer and boiled. Protein samples from the above experiments were loaded onto 4-20% Tris-glycine gel (Invitrogen) for fractionation. Western blotting was performed using anti-TDP-43 antibody (Proteintech Group).

Chain of TDP-43 (TARDBP) (Q13148 whole entry, one chain of several): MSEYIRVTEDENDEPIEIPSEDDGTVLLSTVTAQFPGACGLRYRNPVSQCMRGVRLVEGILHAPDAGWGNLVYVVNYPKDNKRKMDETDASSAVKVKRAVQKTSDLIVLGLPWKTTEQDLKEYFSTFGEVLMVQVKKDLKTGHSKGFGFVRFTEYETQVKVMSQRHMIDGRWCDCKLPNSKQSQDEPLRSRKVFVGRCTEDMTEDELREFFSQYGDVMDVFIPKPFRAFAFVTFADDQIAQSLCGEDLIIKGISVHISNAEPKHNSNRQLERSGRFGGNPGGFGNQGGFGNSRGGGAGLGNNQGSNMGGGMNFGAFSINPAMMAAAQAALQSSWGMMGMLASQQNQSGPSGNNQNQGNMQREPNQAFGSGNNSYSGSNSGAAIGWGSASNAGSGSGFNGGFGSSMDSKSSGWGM

Binder: TGTGTGTGTGTGTGTGTGTGTGTG (ssDNA) [TG12-biotin]
- binding result: binds
